Source: patent US20240116985A1 (published 2024)
Starred links: 1 amine or outer side, 2 acyl side, 3 side chain; linkers in the order of their positions; H or OH if unused. Positions of bridges follow the written chain, without caps; N, C: chain ends. Non-standard residues stand in square brackets, D forms with d. Primed or numbered codes have the meaning given here. PyrS2″ = (S)-3-amino-1-((pent-4-en-1-yloxy)carbonyl)pyrrolidine-3-carboxylic acid (stapling residue), C=CCCCOC(=O)N1CC[C@@](N[*:1])(C(=O)[*:2])C1; B5(16) = 2-amino-2-(pent-4-en-1-yl)hept-6-enoic acid = 2,2-bis(4-pentenyl)glycine (stitching residue), C=CCCCC(CCCC=C)(N[*:1])C(=O)[*:2]; B5(4) = 2,2-bis(4-pentenyl)glycine = 2-amino-2-(pent-4-en-1-yl)hept-6-enoic acid (stitching residue), C=CCCCC(CCCC=C)(N[*:1])C(=O)[*:2]; B5(20) = 2-amino-2-(pent-4-en-1-yl)hept-6-enoic acid = bis(4-pentenyl)glycine, stitching residue, C=CCCCC(CCCC=C)(N[*:1])C(=O)[*:2]; PyrS2 = (S)-3-amino-1-((pent-4-en-1-yloxy)carbonyl)pyrrolidine-3-carboxylic acid, C=CCCCOC(=O)N1CC[C@@](N[*:1])(C(=O)[*:2])C1; Trp(1-Me) = Cn1cc(C[C@H](N)C(=O)O)c2ccccc21; Bta = N[C@@H](Cc1csc2ccccc12)C(=O)O; Lys(iPr) = CC(C)NCCCC[C@H](N)C(=O)O; αAllylPro = C=CC[C@@]1(C(=O)O)CCCN1; tBuAla = CC(C)(C)C[C@H](N)C(=O)O; 3Thi = N[C@@H](Cc1ccsc1)C(=O)O; S8 = C=CCCCCCC[C@](C)(N)C(=O)O

B1: I-351 (peptide)
peptide: XDAXADAAFVXFWQ
modifications: not fully specified; N-terminal Ac; C-terminal NH2; PL3 at 1, B5 at 4, S8 at 11 (stapled 1-4 and 4-11)
notes: Stapled peptide composition; Later-eluting isomer composition; also called Ac-PL3-Asp-Ala-B5-Ala-Asp-Ala-Ala-Phe-Val-S8-Phe-Trp-Gln-NH2
B2: I-350 (peptide)
peptide: XDAXADAAFVXFWQ
modifications: not fully specified; N-terminal Ac; C-terminal NH2; PL3 at 1, B5 at 4, S8 at 11 (stapled 1-4 and 4-11)
notes: Stapled peptide composition; Earlier-eluting isomer composition; also called Ac-PL3-Asp-Ala-B5-Ala-Asp-Ala-Ala-Phe-Val-S8-Phe-Trp-Gln-NH2
B3: I-349 (peptide)
peptide: XAAXDDAAFVXFWQ
modifications: not fully specified; N-terminal Ac; C-terminal NH2; PL3 at 1, B5 at 4, S8 at 11 (stapled 1-4 and 4-11)
notes: Stapled peptide composition; Later-eluting isomer composition; also called Ac-PL3-Ala-Ala-B5-Asp-Asp-Ala-Ala-Phe-Val-S8-Phe-Trp-Gln-NH2
B4: I-348 (peptide)
peptide: XAAXDDAAFVXFWQ
modifications: not fully specified; N-terminal Ac; C-terminal NH2; PL3 at 1, B5 at 4, S8 at 11 (stapled 1-4 and 4-11)
notes: Stapled peptide composition; Earlier-eluting isomer composition; also called Ac-PL3-Ala-Ala-B5-Asp-Asp-Ala-Ala-Phe-Val-S8-Phe-Trp-Gln-NH2
B5: I-352 (peptide)
peptide: Ac-[αAllylPro]DA[B5(16)]DAAAFV[S8]FWQ-NH2
modifications: staple 1-4, 4-11
notes: Stapled peptide composition; also called Ac-PL3-Asp-Ala-B5-Asp-Ala-Ala-Ala-Phe-Val-S8-Phe-Trp-Gln-NH2

Molecular target: T1, full-length beta-Catenin (Uniprot ID P35222) (Homo sapiens (Human), UniProt P35222 2-781)
T1 construct: also called bCat; B-Catenin
T1 sequence: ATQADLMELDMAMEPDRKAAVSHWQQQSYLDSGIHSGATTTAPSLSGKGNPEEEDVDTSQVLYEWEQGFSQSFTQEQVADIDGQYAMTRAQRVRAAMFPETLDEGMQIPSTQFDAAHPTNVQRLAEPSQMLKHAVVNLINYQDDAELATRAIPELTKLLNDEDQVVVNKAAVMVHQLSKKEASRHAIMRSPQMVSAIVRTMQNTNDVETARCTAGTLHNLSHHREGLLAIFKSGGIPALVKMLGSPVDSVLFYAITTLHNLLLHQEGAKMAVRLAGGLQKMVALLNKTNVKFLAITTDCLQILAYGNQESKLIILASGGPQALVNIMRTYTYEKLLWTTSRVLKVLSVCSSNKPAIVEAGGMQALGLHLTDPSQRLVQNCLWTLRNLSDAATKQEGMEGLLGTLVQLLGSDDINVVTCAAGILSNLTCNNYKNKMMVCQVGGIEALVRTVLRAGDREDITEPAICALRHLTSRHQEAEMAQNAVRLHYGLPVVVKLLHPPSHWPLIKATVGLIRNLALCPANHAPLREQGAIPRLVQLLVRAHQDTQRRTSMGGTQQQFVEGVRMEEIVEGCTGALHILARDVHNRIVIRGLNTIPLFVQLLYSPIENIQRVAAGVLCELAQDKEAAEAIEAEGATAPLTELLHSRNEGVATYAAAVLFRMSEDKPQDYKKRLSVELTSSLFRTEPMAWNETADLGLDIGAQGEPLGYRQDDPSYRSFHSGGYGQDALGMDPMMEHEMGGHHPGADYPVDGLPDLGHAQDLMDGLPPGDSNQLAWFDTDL
Test: fluorescence polarization competition; full-length beta-catenin, 5FAM-TCF4(10-53) probe as competitor
Protocol: (§1) The plate was incubated protected from light for 60 minutes at 20° C. prior to read. Reads were performed on a CLARIOstar plate reader (BMG Labtech) in duplicate, and data were fitted to a 1:1 binding model with hill slope using an in-house script. All provided concentrations are final concentrations.

Ac-[αAllylPro]N[tBuAla][B5(4)]DT[Lys(iPr)]AFL[PyrS2″]F[Trp(1-Me)]Q-NH2 (staple 1-4, 4-11) [I-1589] and Ac-[αAllylPro]N[tBuAla][B5(4)]DT[Lys(iPr)]AFL[PyrS2]YWQ-NH2 (staple 1-4, 4-11) [I-1590] are within 1.5-fold of each other in IC50: 10 µM for the first, 7.52 µM for the second.

Compared with Ac-[αAllylPro]N[tBuAla][B5(4)]DT[Lys(iPr)]AFL[PyrS2″]FYQ-NH2 (staple 1-4, 4-11) [I-1585], Ac-[αAllylPro]NL[B5(4)]DT[Lys(iPr)]AFL[PyrS2″]F[Bta]Q-NH2 (staple 1-4, 4-11) [I-1582] is 8.2-fold lower in IC50: 10 µM for the first, 1.22 µM for the second. The second is the more potent here.

Ac-[αAllylPro]N[Lys(iPr)][B5(4)]DT[Lys(iPr)]AFL[PyrS2]F[Bta]Q-NH2 (staple 1-4, 4-11) [I-1591] and Ac-[αAllylPro]NQ[B5(4)]DT[Lys(iPr)]AFL[PyrS2″]F[Bta]Q-NH2 (staple 1-4, 4-11) [I-1584] are within 1.5-fold of each other in IC50: 3.11 µM for the first, 2.44 µM for the second.

Ac-[αAllylPro]NS[B5(4)]DT[Lys(iPr)]AFL[PyrS2″]F[Bta]Q-NH2 (staple 1-4, 4-11) [I-1583] gave an IC50 of 3.42 µM.

Molecular target: T2, full-length beta-Catenin (Uniprot ID P35222) (Homo sapiens (Human), UniProt P35222 2-781)
T2 construct: The assay protocols say only 'full-length'; No tag is stated, although the AlphaScreen kit is a Histidine (Nickel Chelate) kit; also called B-Catenin; bCat
T2 sequence: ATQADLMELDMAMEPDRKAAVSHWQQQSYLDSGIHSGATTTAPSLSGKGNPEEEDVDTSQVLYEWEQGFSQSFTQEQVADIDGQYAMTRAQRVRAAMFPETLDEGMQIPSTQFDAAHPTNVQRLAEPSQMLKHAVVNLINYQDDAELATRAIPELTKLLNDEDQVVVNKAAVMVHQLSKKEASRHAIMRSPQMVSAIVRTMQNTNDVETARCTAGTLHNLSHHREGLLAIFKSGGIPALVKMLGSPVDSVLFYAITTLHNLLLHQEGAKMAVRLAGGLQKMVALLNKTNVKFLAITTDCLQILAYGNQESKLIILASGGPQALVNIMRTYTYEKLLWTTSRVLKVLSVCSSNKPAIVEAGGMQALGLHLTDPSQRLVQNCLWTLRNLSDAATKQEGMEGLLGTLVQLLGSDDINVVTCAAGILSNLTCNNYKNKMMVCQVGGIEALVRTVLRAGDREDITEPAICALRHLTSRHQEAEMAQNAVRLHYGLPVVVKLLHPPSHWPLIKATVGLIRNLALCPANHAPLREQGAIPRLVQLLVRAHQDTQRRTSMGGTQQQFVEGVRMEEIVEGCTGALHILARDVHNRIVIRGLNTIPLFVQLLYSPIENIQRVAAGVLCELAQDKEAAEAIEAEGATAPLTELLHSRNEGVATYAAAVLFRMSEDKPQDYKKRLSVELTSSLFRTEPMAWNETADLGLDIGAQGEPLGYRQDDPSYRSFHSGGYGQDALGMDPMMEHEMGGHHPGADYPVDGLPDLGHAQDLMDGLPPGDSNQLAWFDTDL
Test: AlphaScreen competition; peptide titrated against full-length beta-catenin + biotin-TCF4(10-53)
Protocol: as §1, with “Equal volume of the titrated peptide was added to the” for “The”, “and” for “was”, “incubated for 15 minutes at 20° C. Then 4 uL of donor and 4 uL acceptor beads at 10 ug/mL were added to the plate, for a 16 uL reaction pool and” for “incubated”

B1 and B2 are the same in EC50: 10 µM for the first, 10 µM for the second.

B3 and B4 are within 1.5-fold of each other in EC50: 7.19 µM for the first, 10 µM for the second.

Binder B5 has an EC50 of 0.377 µM.

Molecular target: T3, B-cat-Halo (NanoBRET construct expressed in HEK293 cells) (UniProt P35222 1-781)
T3 sequence (looked up): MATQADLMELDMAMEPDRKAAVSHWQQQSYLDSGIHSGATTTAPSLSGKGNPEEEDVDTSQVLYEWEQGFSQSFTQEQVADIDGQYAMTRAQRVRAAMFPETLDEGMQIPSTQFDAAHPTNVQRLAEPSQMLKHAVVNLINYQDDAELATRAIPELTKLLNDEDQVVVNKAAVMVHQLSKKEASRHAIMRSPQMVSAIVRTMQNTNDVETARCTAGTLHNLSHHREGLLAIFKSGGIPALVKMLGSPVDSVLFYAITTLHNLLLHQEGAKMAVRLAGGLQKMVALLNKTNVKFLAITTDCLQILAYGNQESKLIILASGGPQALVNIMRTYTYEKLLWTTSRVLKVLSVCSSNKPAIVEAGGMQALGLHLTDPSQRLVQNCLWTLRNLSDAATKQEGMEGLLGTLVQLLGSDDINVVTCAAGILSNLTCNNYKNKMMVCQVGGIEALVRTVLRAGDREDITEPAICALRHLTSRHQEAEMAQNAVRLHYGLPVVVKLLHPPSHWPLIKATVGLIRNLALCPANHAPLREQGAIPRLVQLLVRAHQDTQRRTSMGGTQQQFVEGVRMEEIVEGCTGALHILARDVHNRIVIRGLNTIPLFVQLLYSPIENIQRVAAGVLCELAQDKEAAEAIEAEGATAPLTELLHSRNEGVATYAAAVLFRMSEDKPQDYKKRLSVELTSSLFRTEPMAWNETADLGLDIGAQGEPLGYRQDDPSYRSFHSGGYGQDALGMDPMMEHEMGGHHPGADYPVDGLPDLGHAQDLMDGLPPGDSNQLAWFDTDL
Test: cell-based or functional assay

Compared with Ac-[αAllylPro]DI[B5(20)]DEAAFN[S8][3Thi][Bta]H-NH2 (staple 1-4, 4-11) [I-517], Ac-[αAllylPro]DA[B5(20)]DEAAFN[S8][3Thi][Bta]H-NH2 (staple 1-4, 4-11; also: later-eluting HPLC peak of staple isomers) [I-516] is 3.1-fold higher in “NanoBRET Abs IC50” value: 9.7 µM for the first, 30.5 µM for the second.
